# Tested on: Escherichia coli TOP10
# Assay: shrunken log2 fold change of peptide-encoding DNA abundance (4.5 h post-induction vs induction); higher = less antimicrobial activity (less host growth inhibition)
# Conditions: time post-induction: 4.5 h; library: site-saturation at positions 5, 18, 19, 20
# 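Also: peptides expressed intracellularly from a pBAD plasmid library in pooled LB shake-flask culture, induced with 0.3% L-arabinose, DNA abundance read by NGS, three biological replicates, DESeq2 with apeglm shrinkage.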
row,Sequence,shrunken log2 fold change
1,RRIRVRPPRLPRPRPRPKGAPRP,0.553
2,RRIRQRPPRLPRPRPRPYQHPRP,-0.515
3,RRIRDRPPRLPRPRPRPASIPRP,0.0781
4,RRIRSRPPRLPRPRPRPKHTPRP,-0.206
5,RRIRTRPPRLPRPRPRPESQPRP,-0.0324
6,RRIRNRPPRLPRPRPRPCVCPRP,-0.00201
7,RRIRDRPPRLPRPRPRPYDPPRP,0.0101
8,RRIRLRPPRLPRPRPRPNITPRP,-0.327
9,RRIRIRPPRLPRPRPRPRTAPRP,0.436
10,RRIRYRPPRLPRPRPRPHPVPRP,-0.185
11,RRIRTRPPRLPRPRPRPQIIPRP,-0.358
12,RRIRWRPPRLPRPRPRPRNEPRP,1.32
13,RRIRARPPRLPRPRPRPMLGPRP,0.211
14,RRIRLRPPRLPRPRPRPGFAPRP,0.36
15,RRIRFRPPRLPRPRPRPGTYPRP,-0.851
16,RRIRERPPRLPRPRPRPQPCPRP,-0.312
17,RRIRTRPPRLPRPRPRPTWVPRP,0.149
18,RRIRCRPPRLPRPRPRPKVTPRP,-0.455
19,RRIRCRPPRLPRPRPRPRGPPRP,0.816
20,RRIRQRPPRLPRPRPRPKKAPRP,-0.15
21,RRIRWRPPRLPRPRPRPGVDPRP,0.371
22,RRIRIRPPRLPRPRPRPVKRPRP,-0.09
23,RRIRNRPPRLPRPRPRPHEIPRP,-0.102
24,RRIRMRPPRLPRPRPRPQTTPRP,0.634
25,RRIRWRPPRLPRPRPRPDVSPRP,0.265

row,Sequence,shrunken log2 fold change
1,RRIRYRPPRLPRPRPRPTAVPRP,-0.169
2,RRIRYRPPRLPRPRPRPKNDPRP,-0.737
3,RRIRIRPPRLPRPRPRPEIPPRP,-0.0249
4,RRIRSRPPRLPRPRPRPARPPRP,0.691
5,RRIRARPPRLPRPRPRPKMQPRP,0.32
6,RRIRWRPPRLPRPRPRPGGPPRP,0.367
7,RRIRMRPPRLPRPRPRPMADPRP,1.11
8,RRIRVRPPRLPRPRPRPPDCPRP,-0.0843
9,RRIRIRPPRLPRPRPRPYCWPRP,-0.185
10,RRIRCRPPRLPRPRPRPQVQPRP,0.0244
11,RRIRYRPPRLPRPRPRPDWGPRP,-0.0597
12,RRIRKRPPRLPRPRPRPFYKPRP,-0.456
13,RRIRGRPPRLPRPRPRPSYSPRP,-0.0047
14,RRIRHRPPRLPRPRPRPKMPPRP,-0.0334
15,RRIRKRPPRLPRPRPRPYCVPRP,-0.382
16,RRIRMRPPRLPRPRPRPTPIPRP,0.255
17,RRIRCRPPRLPRPRPRPYKNPRP,-0.984
18,RRIRDRPPRLPRPRPRPCLVPRP,0.148
19,RRIRGRPPRLPRPRPRPDLIPRP,0.87
20,RRIRGRPPRLPRPRPRPPLDPRP,0.989
21,RRIRERPPRLPRPRPRPTVIPRP,-0.0209
22,RRIRERPPRLPRPRPRPPFTPRP,1.17
23,RRIRIRPPRLPRPRPRPNFVPRP,0.0196
24,RRIRARPPRLPRPRPRPLVIPRP,-0.152
25,RRIRTRPPRLPRPRPRPSVHPRP,-0.237

row,Sequence,shrunken log2 fold change
1,RRIRERPPRLPRPRPRPAKLPRP,-0.0209
2,RRIRARPPRLPRPRPRPEQCPRP,0.42
3,RRIRWRPPRLPRPRPRPALNPRP,0.801
4,RRIRKRPPRLPRPRPRPDSYPRP,-0.00206
5,RRIRQRPPRLPRPRPRPSTSPRP,-0.126
6,RRIRKRPPRLPRPRPRPDIIPRP,0.194
7,RRIRWRPPRLPRPRPRPYKRPRP,-0.977
8,RRIRFRPPRLPRPRPRPMGWPRP,0.0642
9,RRIRYRPPRLPRPRPRPQKDPRP,-0.177
10,RRIRARPPRLPRPRPRPMQSPRP,0.43
11,RRIRPRPPRLPRPRPRPWRWPRP,0.915
12,RRIRMRPPRLPRPRPRPEEVPRP,0.00922
13,RRIRVRPPRLPRPRPRPFSVPRP,-0.299
14,RRIRSRPPRLPRPRPRPWIIPRP,-0.159
15,RRIRVRPPRLPRPRPRPCRYPRP,0.0933
16,RRIRMRPPRLPRPRPRPWVVPRP,0.346
17,RRIRQRPPRLPRPRPRPGCIPRP,-0.306
18,RRIRVRPPRLPRPRPRPMAHPRP,0.00201
19,RRIRHRPPRLPRPRPRPTKVPRP,-0.0672
20,RRIRDRPPRLPRPRPRPIHMPRP,0.0641
21,RRIRQRPPRLPRPRPRPENYPRP,0.309
22,RRIRCRPPRLPRPRPRPREDPRP,0.0389
23,RRIRDRPPRLPRPRPRPNAIPRP,0.13
24,RRIRARPPRLPRPRPRPDIWPRP,0.69
25,RRIRTRPPRLPRPRPRPSPVPRP,0.0854

row,Sequence,shrunken log2 fold change
1,RRIRQRPPRLPRPRPRPMGVPRP,-0.00411
2,RRIRNRPPRLPRPRPRPVEWPRP,0.00664
3,RRIRNRPPRLPRPRPRPNKCPRP,-0.466
4,RRIRVRPPRLPRPRPRPLPGPRP,0.547
5,RRIRMRPPRLPRPRPRPVCGPRP,0.898
6,RRIRMRPPRLPRPRPRPAESPRP,0.419
7,RRIRCRPPRLPRPRPRPNGTPRP,-0.0476
8,RRIRKRPPRLPRPRPRPNQYPRP,-0.0702
9,RRIRERPPRLPRPRPRPFWRPRP,0.0935
10,RRIRIRPPRLPRPRPRPRQHPRP,-0.199
11,RRIRVRPPRLPRPRPRPHKMPRP,-0.264
12,RRIRIRPPRLPRPRPRPKKGPRP,-0.252
13,RRIRTRPPRLPRPRPRPNISPRP,-0.293
14,RRIRIRPPRLPRPRPRPPMKPRP,-0.789
15,RRIRGRPPRLPRPRPRPIVIPRP,-0.227
16,RRIRPRPPRLPRPRPRPQLTPRP,-0.221
17,RRIRRRPPRLPRPRPRPRRNPRP,0.223
18,RRIRHRPPRLPRPRPRPMVYPRP,-0.0125
19,RRIRYRPPRLPRPRPRPKWAPRP,-0.0552
20,RRIRMRPPRLPRPRPRPKNEPRP,0.881
21,RRIRPRPPRLPRPRPRPMIQPRP,0.0205
22,RRIRFRPPRLPRPRPRPKWPPRP,0.27
23,RRIRVRPPRLPRPRPRPRSYPRP,-0.0987
24,RRIRYRPPRLPRPRPRPGQFPRP,-0.0455
25,RRIRERPPRLPRPRPRPCAEPRP,-0.0868

row,Sequence,shrunken log2 fold change
1,RRIRHRPPRLPRPRPRPDGFPRP,-0.015
2,RRIRRRPPRLPRPRPRPAAVPRP,0.462
3,RRIRNRPPRLPRPRPRPQQTPRP,-0.0918
4,RRIRPRPPRLPRPRPRPHHSPRP,-0.454
5,RRIRDRPPRLPRPRPRPCREPRP,0.123
6,RRIRIRPPRLPRPRPRPNSHPRP,-0.866
7,RRIRPRPPRLPRPRPRPMYTPRP,-0.236
8,RRIRTRPPRLPRPRPRPRFKPRP,0.115
9,RRIRHRPPRLPRPRPRPIDMPRP,0.0231
10,RRIRCRPPRLPRPRPRPDPEPRP,-0.0407
11,RRIRLRPPRLPRPRPRPLAIPRP,0.221
12,RRIRQRPPRLPRPRPRPMACPRP,-0.159
13,RRIRLRPPRLPRPRPRPNYHPRP,-0.536
14,RRIRERPPRLPRPRPRPNHIPRP,-0.42
15,RRIRFRPPRLPRPRPRPHIHPRP,-1.17
16,RRIRWRPPRLPRPRPRPDTMPRP,0.19
17,RRIRFRPPRLPRPRPRPSSRPRP,-0.273
18,RRIRKRPPRLPRPRPRPPSRPRP,0.772
19,RRIRQRPPRLPRPRPRPTQKPRP,0.0237
20,RRIRDRPPRLPRPRPRPCRNPRP,-0.000921
21,RRIRHRPPRLPRPRPRPQWPPRP,0.112
22,RRIRPRPPRLPRPRPRPRYHPRP,-0.224
23,RRIRYRPPRLPRPRPRPLLTPRP,-0.647
24,RRIRCRPPRLPRPRPRPHKNPRP,-0.418
25,RRIRKRPPRLPRPRPRPREMPRP,-0.0629

row,Sequence,shrunken log2 fold change
1,RRIRFRPPRLPRPRPRPTRHPRP,0.519
2,RRIRERPPRLPRPRPRPFNCPRP,0.0173
3,RRIRLRPPRLPRPRPRPSMGPRP,0.0483
4,RRIRHRPPRLPRPRPRPCSLPRP,-0.115
5,RRIRLRPPRLPRPRPRPHVMPRP,-0.266
6,RRIRARPPRLPRPRPRPHLDPRP,0.324
7,RRIRWRPPRLPRPRPRPCESPRP,-0.0177
8,RRIRQRPPRLPRPRPRPDAVPRP,-0.0012
9,RRIRKRPPRLPRPRPRPNPKPRP,0.143
10,RRIRDRPPRLPRPRPRPDNIPRP,-0.112
11,RRIRPRPPRLPRPRPRPVTHPRP,-0.227
12,RRIRNRPPRLPRPRPRPRAVPRP,1.21
13,RRIRYRPPRLPRPRPRPFAGPRP,4.12
14,RRIRLRPPRLPRPRPRPRIYPRP,-0.636
15,RRIRLRPPRLPRPRPRPWWSPRP,-0.0019
16,RRIRKRPPRLPRPRPRPPRPPRP,1.34
17,RRIRCRPPRLPRPRPRPSYWPRP,-0.71
18,RRIRVRPPRLPRPRPRPIVFPRP,0.0602
19,RRIRSRPPRLPRPRPRPAVPPRP,0.168
20,RRIRCRPPRLPRPRPRPAIYPRP,-0.17
21,RRIRGRPPRLPRPRPRPPLVPRP,0.813
22,RRIRRRPPRLPRPRPRPLCGPRP,0.0348
23,RRIRRRPPRLPRPRPRPPCNPRP,0.36
24,RRIRLRPPRLPRPRPRPRPYPRP,-0.0267
25,RRIRSRPPRLPRPRPRPSGVPRP,-0.0112

# — the supplement of paper PMC9112550, “Optimization of the antimicrobial peptide Bac7 by deep mutational scanning” (BMC Biology, 2022)
